The values below come from article PMC10889368, “Mesenchymal Transglutaminase 2 Activates Epithelial ADAM17: Link to G-Protein-Coupled Receptor 56 (ADGRG1) Signalling” (International Journal of Molecular Sciences, 2024).

For assay [1], the target named is GPR56 (Mus musculus) (UniProt Q8K209). The settings on record: cited from earlier work.
For assay [2], the target named is T1, human recombinant transglutaminase 2 (TG2), wild type (human, UniProt P21980 1-687).
T1 construct: transglutaminase 2, human; also called native TG2; wild type TG2; source: E. coli BL21(DE3pLysS), purified to homogeneity
T1 sequence (looked up): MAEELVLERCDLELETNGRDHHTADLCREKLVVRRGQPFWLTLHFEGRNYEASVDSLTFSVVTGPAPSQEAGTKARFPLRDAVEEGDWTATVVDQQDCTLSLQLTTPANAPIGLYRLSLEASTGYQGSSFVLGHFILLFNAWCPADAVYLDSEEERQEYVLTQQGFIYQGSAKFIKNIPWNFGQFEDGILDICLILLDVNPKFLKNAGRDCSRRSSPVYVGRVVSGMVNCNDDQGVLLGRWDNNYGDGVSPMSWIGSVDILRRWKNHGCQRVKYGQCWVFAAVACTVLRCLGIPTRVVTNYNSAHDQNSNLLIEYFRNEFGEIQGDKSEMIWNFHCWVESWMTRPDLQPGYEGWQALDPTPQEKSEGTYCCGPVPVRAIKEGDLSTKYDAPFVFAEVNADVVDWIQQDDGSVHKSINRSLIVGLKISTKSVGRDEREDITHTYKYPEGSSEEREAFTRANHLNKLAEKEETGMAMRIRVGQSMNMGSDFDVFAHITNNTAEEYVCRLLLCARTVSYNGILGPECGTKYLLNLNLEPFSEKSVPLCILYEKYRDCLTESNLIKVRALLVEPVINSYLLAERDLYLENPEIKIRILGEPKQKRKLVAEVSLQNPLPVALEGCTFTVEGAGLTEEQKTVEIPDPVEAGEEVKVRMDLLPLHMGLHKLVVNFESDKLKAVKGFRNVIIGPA
In words: pull-down; N-GPR56-Fc fusion proteins from CHO conditioned medium held on protein G-Sepharose beads, washed (20 mM Tris/HCl, pH 7.4, 150 mM NaCl), incubated with TG2 (50 µg/mL) in 50 µL overnight at 4 °C; eluted with 0.1 M glycine/HCl pH 2.5; Western blot. The settings on record: both partners purified. For orientation: A western blot detects proteins with antibodies after separation by electrophoresis.

Assay [3] has as its target T2, human C230-A TG2 mutant (oxidation resistant mutant of TG2) (human, UniProt P21980 1-687, C230A).
T2 construct: transglutaminase 2, human, with C230A; source: E. coli BL21(DE3pLysS), purified to homogeneity
T2 sequence (looked up): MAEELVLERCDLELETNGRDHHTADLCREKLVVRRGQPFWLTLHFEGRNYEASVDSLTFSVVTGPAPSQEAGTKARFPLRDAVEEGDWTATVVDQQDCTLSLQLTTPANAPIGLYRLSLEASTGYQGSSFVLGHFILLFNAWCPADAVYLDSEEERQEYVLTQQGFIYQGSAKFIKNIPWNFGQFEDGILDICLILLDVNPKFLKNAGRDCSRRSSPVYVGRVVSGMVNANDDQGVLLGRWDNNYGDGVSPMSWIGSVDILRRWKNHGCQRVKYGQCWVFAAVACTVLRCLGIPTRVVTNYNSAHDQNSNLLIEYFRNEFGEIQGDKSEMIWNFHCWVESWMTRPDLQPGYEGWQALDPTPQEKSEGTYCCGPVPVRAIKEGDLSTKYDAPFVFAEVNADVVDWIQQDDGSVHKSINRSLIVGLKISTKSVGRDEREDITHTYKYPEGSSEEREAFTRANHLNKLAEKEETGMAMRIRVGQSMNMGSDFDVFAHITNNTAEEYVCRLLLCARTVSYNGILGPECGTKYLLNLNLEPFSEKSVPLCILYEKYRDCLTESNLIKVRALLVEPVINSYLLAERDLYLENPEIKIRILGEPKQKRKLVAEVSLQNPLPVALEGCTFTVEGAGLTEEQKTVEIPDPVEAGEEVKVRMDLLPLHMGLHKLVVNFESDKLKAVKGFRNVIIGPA
The description is as above. The settings on record: both partners purified.

Assay [4] deals with T3, wild type murine TG2 (murine, UniProt P21981 1-686).
T3 construct: transglutaminase 2, mouse, wild type; construct not described
T3 sequence (looked up): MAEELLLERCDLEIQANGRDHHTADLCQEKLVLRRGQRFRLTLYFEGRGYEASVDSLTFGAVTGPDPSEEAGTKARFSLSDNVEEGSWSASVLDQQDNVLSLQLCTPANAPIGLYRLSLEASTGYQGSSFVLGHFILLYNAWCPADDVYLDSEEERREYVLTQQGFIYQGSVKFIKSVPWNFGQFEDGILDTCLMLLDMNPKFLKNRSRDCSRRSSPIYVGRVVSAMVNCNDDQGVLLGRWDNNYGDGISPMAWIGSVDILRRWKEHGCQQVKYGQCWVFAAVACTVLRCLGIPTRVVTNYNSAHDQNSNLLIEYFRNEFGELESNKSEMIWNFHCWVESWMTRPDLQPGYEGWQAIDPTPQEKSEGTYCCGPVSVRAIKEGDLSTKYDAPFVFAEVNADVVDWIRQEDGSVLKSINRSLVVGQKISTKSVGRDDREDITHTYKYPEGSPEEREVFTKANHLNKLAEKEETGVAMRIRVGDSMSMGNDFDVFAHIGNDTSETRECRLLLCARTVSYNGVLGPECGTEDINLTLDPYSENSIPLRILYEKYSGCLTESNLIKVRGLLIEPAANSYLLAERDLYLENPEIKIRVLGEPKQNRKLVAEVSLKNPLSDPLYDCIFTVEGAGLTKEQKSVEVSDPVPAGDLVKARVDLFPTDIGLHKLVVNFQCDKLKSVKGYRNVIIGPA
The description is as above. The settings on record: both partners purified.

In assay [5] the target is T4, C277S-TG2 (catalytically deficient TG2 C277S mutant) (human, UniProt P21980 1-687, C277S).
T4 construct: transglutaminase 2 with C277S; the results call the analyte of the kinetic studies human TG2; Incubated with 10 mM DTT for 10 min and re-buffered into HBS before SPR; source: E. coli BL21(DE3pLysS), purified to homogeneity
T4 sequence (looked up): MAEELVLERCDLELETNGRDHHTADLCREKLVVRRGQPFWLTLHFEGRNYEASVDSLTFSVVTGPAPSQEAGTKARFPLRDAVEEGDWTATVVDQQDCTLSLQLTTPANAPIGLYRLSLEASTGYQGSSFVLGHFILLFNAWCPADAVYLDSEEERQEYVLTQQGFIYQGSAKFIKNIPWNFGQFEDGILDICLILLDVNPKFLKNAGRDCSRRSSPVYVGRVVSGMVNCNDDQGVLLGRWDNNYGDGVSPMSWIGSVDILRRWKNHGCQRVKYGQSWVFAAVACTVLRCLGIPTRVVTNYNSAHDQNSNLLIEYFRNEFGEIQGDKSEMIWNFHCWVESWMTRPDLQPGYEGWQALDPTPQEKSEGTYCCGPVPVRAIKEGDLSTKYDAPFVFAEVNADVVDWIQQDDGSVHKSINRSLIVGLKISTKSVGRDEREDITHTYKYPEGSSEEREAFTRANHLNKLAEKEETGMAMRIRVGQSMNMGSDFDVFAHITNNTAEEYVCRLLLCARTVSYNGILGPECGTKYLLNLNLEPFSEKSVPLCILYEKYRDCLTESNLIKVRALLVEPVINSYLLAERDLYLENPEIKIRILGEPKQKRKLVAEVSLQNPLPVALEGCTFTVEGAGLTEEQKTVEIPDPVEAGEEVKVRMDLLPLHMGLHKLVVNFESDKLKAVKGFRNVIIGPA
In words: SPR; BIAcore T200, protein A sensor chip; 270-320 RU of 1-382 N-GPR56-Fc fusion protein, or conditioned medium containing it (1:10 in HBS), captured; C277S-TG2 (DTT treated) as analyte, 8 serial dilutions; 25 °C, HBS (10 mM Hepes pH 7.4, 0.15 M NaCl, 3 mM EDTA, 0.005% P20), 30 µL/min; with 20 mM Ca2+; equilibrium analysis. The settings on record: both partners purified. (In general: In SPR one partner is held on a chip, and binding of the other changes the refractive index at the surface.)

In general, Kd refers to the constant that tells how readily two partners part at equilibrium.

GPR56 (Mus musculus), sequence (Q8K209 26-382): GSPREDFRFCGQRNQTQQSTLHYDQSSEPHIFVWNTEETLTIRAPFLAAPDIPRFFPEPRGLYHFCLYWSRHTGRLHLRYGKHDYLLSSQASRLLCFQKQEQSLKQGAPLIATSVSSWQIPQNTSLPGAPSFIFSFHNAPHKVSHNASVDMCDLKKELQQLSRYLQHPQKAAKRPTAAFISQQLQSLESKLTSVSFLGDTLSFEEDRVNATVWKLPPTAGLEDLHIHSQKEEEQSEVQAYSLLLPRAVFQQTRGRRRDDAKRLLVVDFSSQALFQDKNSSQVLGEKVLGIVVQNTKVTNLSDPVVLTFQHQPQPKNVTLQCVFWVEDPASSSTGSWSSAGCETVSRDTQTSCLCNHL

For TG2 (from UniProt P21981), the Kd in assay [1] is 330 nM.

B1: 1-382 N-GPR56-Fc fusion protein (Fc fusion, human, UniProt Q9Y653 26-382, looked up)
chain: RGHREDFRFCSQRNQTHRSSLHYKPTPDLRISIENSEEALTVHAPFPAAHPASRSFPDPRGLYHFCLYWNRHAGRLHLLYGKRDFLLSDKASSLLCFQHQEESLAQGPPLLATSVTSWWSPQNISLPSAASFTFSFHSPPHTAAHNASVDMCELKRDLQLLSQFLKHPQKASRRPSAAPASQQLQSLESKLTSVRFMGDMVSFEEDRINATVWKLQPTAGLQDLHIHSRQEEEQSEIMEYSVLLPRTLFQRTKGRSGEAEKRLLLVDFSSQALFQDKNSSQVLGEKVLGIVVQNTKVANLTEPVVLTFQHQLQPKNVTLQCVFWVEDPTLSSPGHWSSAGCETVRRETQTSCFCNHL
notes: signal peptide in the construct; Fc retains the cysteine residues for dimerization; The limits 1-382 are printed for the SPR; also called human N-GPR56; source: CHO cells, transfected; conditioned medium, purified on protein G-Sepharose, or conditioned medium used directly; not shown: Fc (human IgG1 heavy chain, amino acids 3-236), C-terminal, kept
Turning to B1, the binding result in assay [2], in assay [3] and in assay [4] was “binds” in each case. This molecule also gave a Kd in assay [5] of about 1200 nM.
